This note sets out measurements from patent CN111434683A.

Where “and” joins values, the source holds several entries; their conditions need not be identical. Identical values can stand only once.

Experiment [1] concerns the target H7N9病毒的HA蛋白(购自ACROBiosystems) (H7N9 influenza virus). The experiment is described as follows: ELISA, negative control on coated HA. A general note: ELISA stands for enzyme-linked immunosorbent assay.
For experiment [2] the target is unchanged. The experiment can be described thus: ELISA, supernatant of transfected 293F cells on coated HA.
For experiment [3] the target is unchanged.
Experiment [4] addresses H7N9病毒 A/Anhui/1/2013 (H7N9 influenza virus A/Anhui/1/2013). The experiment can be described thus: cell-based or functional assay.

As to 阴性对照, the 450nm in experiment [1] is 0.0675 OD450 and 0.0554 OD450.

B1: 抗H7N9全人源单克隆抗体8D11 (antibody, V domains shown)
VH: QVQLVESGAEVKKPGASVKVSCKASGYIFFTSYDINWVRQATGQGLEWMGWMNPDSGDTGFAQKFQGRVTMTRNTSITTAYMELSSLTSEDTAVYYCATGNADCSGGSCYNWFDPWGQGTLVTVSS
VL: SSELTQDPAVSVALGQTVRITCQGDRLRSYTYASWYQQKPGQAPVLVIYGKNNRPSGIPDRFSGSSSGNTASLTITGAQAEDEADYYCNSRTSGYHLVFGGGTKLTVLV
As a reminder, the Kd is the constant that tells how readily two partners part at equilibrium. B1: the 450nm in experiment [2] is 0.956 OD450 and 0.981 OD450 and 0.742 OD450. In experiment [3], this molecule registered a Kd of 8.3 nM. In experiment [4], the IC50 (微量中和-ELISA, MDCK细胞) was 0.89 µg/mL.
